Laboratory results from publication PMC6222199 (Journal of Bacteriology, 2018).

Tests used:
[1] = molecular target: the molecule itself; assay: SEC-MALS; MiniDawn Treos MALS in line with a Superdex 200 Increase SEC column; without phosphoramidate
[2] = molecular target: the molecule itself; assay: SEC-MALS; MiniDawn Treos MALS in line with a Superdex 200 Increase SEC column; with the phosphoryl donor phosphoramidate (50 uM protein with 50 mM phosphoramidate in 20 mM Tris pH 8, 50 mM NaCl, 10 mM MgCl2, 10 min, room temperature)

Row | Protein | stoichiometry N [1] | stoichiometry N [2]
1 | RR_1586 (response regulator encoded by CDR20291_1586), wild type, unphosphorylated (natural protein, Clostridioides difficile R20291, UniProt A0A9R0BKD1 1-223, looked up, also called apo-RR_1586; wild-type RR_1586) MKVLIVEDNKILLESVVEELSKHFETEKCEDGEEALYLVNQNIYDLVILDLMLPNINGFDILKKMRVNNIDTPVLILTAKETLDDKVEAFTIGANDYLTKPFYMEELVARVYAILRTNGKIKERNGLEFKSLYLDTLEKRVYIEKEEIKLQNKQFNLLEYFVLNKGSILLKEQIYDRIWGIDSDATIEIVEVYVSNLRKKLSKYGYDKYIKTKRKVGYIFDDK | 2 | –
2 | phosphorylated RR_1586 (wild type treated with phosphoramidate) (natural protein, Clostridioides difficile R20291, UniProt A0A9R0BKD1 1-223, looked up, also called phospho-RR_1586) MKVLIVEDNKILLESVVEELSKHFETEKCEDGEEALYLVNQNIYDLVILDLMLPNINGFDILKKMRVNNIDTPVLILTAKETLDDKVEAFTIGANDYLTKPFYMEELVARVYAILRTNGKIKERNGLEFKSLYLDTLEKRVYIEKEEIKLQNKQFNLLEYFVLNKGSILLKEQIYDRIWGIDSDATIEIVEVYVSNLRKKLSKYGYDKYIKTKRKVGYIFDDK | – | 4
